According to patent US8106168B2, “Metalloproteinase binding proteins” (Dyax Corp., priority 2005, dated 2012):

B1: M0040-A03: Fab that binds human MMP-14; DNA LV SEQ ID NO: 80, HV SEQ ID NO: 81 (antibody, V domains shown)
VL: QDIQMTQSPSFVSASVGDRVTISCRASHNINTWLAWYQQKPGKAPNLLIYSASNLQGGVPSRFSGSGSGTDFTLTISSLQPGDFATYYCQQASSFPITFGQGTRLEIK
VH: EVQLLESGGGLVQPGGSLRLSCAASGFTFSNYMMIWVRQAPGKGLEWVSWISPSGGYTFYADSVKGRFTISRDNSKNTLYLQMNSLRAEDTAVYYCARGYYDILTGMVGGGAFDIWGQGTTVTVSS
modifications: Synthetically generated oligonucleotide
B2: M0040-B06: Fab that binds human MMP-14; DNA LV SEQ ID NO: 88, HV SEQ ID NO: 89 (antibody, V domains shown)
VL: QYELTQPPSASGTPGQRVTISCSGSSSNIGRNYVYWYQQVPGTAPKLLIYSNNQRPSGVPDRFSGSKSGTSASLVISGLRSEDEADYYCAAWDASLRGVFGGGTKLTVL
VH: EVQLLESGGGLVQPGGSLRLSCAASGFTFSVYPMVWVRQAPGKGLEWVSYISPSGGFTFYADSVKGRFTISRDNSKNTLYLQMNSLRAEDTAVYYCARVPGGSRQDFDIWGQGTMVTVSS
modifications: Synthetically generated oligonucleotide
B3: M0039-D02: Fab that binds human MMP-14; DNA LV SEQ ID NO: 70, HV SEQ ID NO: 71 (protein)
chain 1: QDIQMTQSPSSLSASVGDRVTITCRASQSISSYLNWYQQKPGKAPKLLIYDASNLETGVPSRFSGSGSGTDFTFTISSLQPEDIATYYCQQFDDLPLTFAGGTKVELKRT
chain 2: EVQLLESGGGLVQPGGSLRLSCAASGFTFSLYVMIWVRQAPGKGLEWVSGIYSSGGDTYYADSVKGRFTISRDNSKNTLYLQMNSLRAEDTAVYYCARGQQLGGGAFDIWGQGTMVTVSS
modifications: Synthetically generated oligonucleotide
B4: M0038-E05: Fab that binds human MMP-14; DNA LV SEQ ID NO: 56, HV SEQ ID NO: 57 (antibody, V domains shown)
VL: QDIQMTQSPSSVSASVGDRVTITCRASQHISNWLAWYQQKPGEAPKLLISAASSLQSGVPSRFSGSGSGTDFTLTISSLQPEDFATYYCQQSYSTPLTFGGGTKVEIK
VH: EVQLLESGGGLVQPGGSLRLSCAASGFTFSPYHMTWVRQAPGKGLEWVSSISSSGGHTEYADSVKGRFTISRDNSKNTLYLQMNSLRAEDTAVYYCATAWAGFTFNVWGQGTMVTVSS
modifications: Synthetically generated oligonucleotide
B5: M0039-G07: Fab that binds human MMP-14; DNA LV SEQ ID NO: 76, HV SEQ ID NO: 77 (antibody, V domains shown)
VL: QDIQMTQSPGTLSLSPGERATLSCRASQSVNSRFLAWYQQKPGQAPRLLIYSTSTRATGIPDRFSGSGSGTDFTLTISRLEPEDFAVYYCQRYGSSPTWTFGQGTKVEIK
VH: EVQLLESGGGLVQPGGSLRLSCAASGFTFSRYVMDWVRQAPGKGLEWVSRISPSGGHTDYADSVKGRFTISRDNSKNTLYLQMNSLRAEDTAVYYCARETVRGVYFDYWGQGTLVTVSS
modifications: Synthetically generated oligonucleotide
B6: M0030-D08: Fab that binds human MMP-14; DNA LV SEQ ID NO: 8, HV SEQ ID NO: 9 (antibody, V domains shown)
VH: EVQLLESGGGLVQPGGSLRLSCAASGFTFSIYQMYWVRQAPGKGLEWVSSIVPSGGLTKYADSVKGRFTISRDNSKNTLYLQMNSLRAEDTAVYYCARERLRYFDWSDRVGESGDYWGQGTLVTVSS
VL: QDIQMTQSPSSLSASVGDRVTMTCRAGQNIKSYLNWYQQKPGKAPQVLIYAASTLQSGVSSRFRGSGSGTHFTLTISDLQPGDSATYYCQQSFSTPRSFGQGTSWRS
B7: M0039-D10: Fab that binds human MMP-14; DNA LV SEQ ID NO: 72, HV SEQ ID NO: 73 (antibody, V domains shown)
VL: QDIQMTQSPDTVSFSPGERASLSCRASQSVRSDLAWYQQKPGQAPRLLIYGASNRATGIPVRFSGSGSGTDFTLTISRLEPEDFAVYYCQQYGSSPLFTFGPGTKVDIK
VH: EVQLLESGGGLVQPGGSLRLSCAASGFTFSMYNMAWVRQAPGKGLEWVSWIYSSGGLTLYADSVKGRFTISRDNSKNTLYLQMNSLRAEDTAVYYCAKGSNTYYFDASGLGAFNMWGQGTMVTVSS
modifications: Synthetically generated oligonucleotide
B8: M0038-H06: Fab that binds human MMP-14; DNA LV SEQ ID NO: 66, HV SEQ ID NO: 67 (antibody, V domains shown)
VL: QDIQMTQSPGTLSLSPGEGATLSCRASQIINPFYVAWYQQRPGQAPRLLIYASSRRAGGIPDRFSGSASGTDFTLTISRLEPEDFAVYYCQYFYNSMWTFGQGAKVEIR
VH: EVQLLESGGGLVQPGGSLRLSCAASGFTFSWYNMTWVRQAPGKGLEWVSRISPSGGDTFYADSVKGRFTISRDNSKNTLYLQMNSLRAEDTAVYYCARAAIAPRPYGMDVWGQGTTVTVSS
modifications: Synthetically generated oligonucleotide
B9: M0039-B07: Fab that binds human MMP-14; DNA LV SEQ ID NO: 68, HV SEQ ID NO: 69 (antibody, V domains shown)
VL: QDIQMTQSPLSLSASVGDRVTITCRASQGISNYLAWYQQKPGKVPKLLIYAASTLQSGVPSRFSGSGSGTDFTLTISSLQPEDVATYYCQKYNSARLTFGGGTKVEIK
VH: EVQLLESGGGLVQPGGSLRLSCAASGFTFSLYPMLWVRQAPGKGLEWVSGISPSGGQTFYADSVKGRFTISRDNSKNTLYLQMNSLRAEDTAVYYCARMAYYSGYFDLWGRGTLVTVSS
modifications: Synthetically generated oligonucleotide
B10: M0038-E12: Fab that binds human MMP-14; DNA LV SEQ ID NO: 60, HV SEQ ID NO: 61 (antibody, V domains shown)
VL: QDIQMTQSPSSLSASVGDSVTITCRASQNINSYLNWYQQKPGKAPKLLIYVASNLQRGVPSRFGGSGSGTDFTLTITSLQPEDFATYSCQQTYSTPLTFGGGTKVEIK
VH: EVQLLESGGGLVQPGGSLRLSCAASGFTFSKYWMMWVRQAPGKGLEWVSVIYPSGGITYYADSVKGRFTISRDNSKNTLYLQMNSLRAEDTAVYYCARLPSWGFDALDIWGQGTMVTVSS
modifications: Synthetically generated oligonucleotide
B11: M0039-G05: Fab that binds human MMP-14; DNA LV SEQ ID NO: 74, HV SEQ ID NO: 75 (antibody, V domains shown)
VL: QDIQMTQSPSFLSASIGDRVTITCRASQGINTFLAWYQQKPGIAPKLLIYAASTLQSGVPSRFSGSGSGTEFTLTISSLQPEDFATYYCQQLNGYRSFGQGTRLEMK
VH: EVQLLESGGGLVQPGGSLRLSCAASGFTFSNYEMGWVRQAPGKGLEWVSWIYSSGGYTSYADSVKGRFTISRDNSKNTLYLQMNSLRAEDTATYYCARDPYYYDSSGYYYYYYYYMDVWGKGTTVTVSS
modifications: Synthetically generated oligonucleotide

Biological target: MMP-14 (Homo sapiens, UniProt P50281)
Experiment: Selection and phage ELISA screening of anti-MMP-14 Fabs
Assay type: binding
Conditions: Fab from FAB310 phage display library
Procedure: Strategy I: A 100-fold excess of the FAB310 library (e.g., an amount of the library that should contain 100 copies of each library member) was depleted of streptavidin-binding antibodies by incubating the library with 200 μL of streptavidin beads for 1 hour at room temperature (RT) with rotation. 500 nM of biotinylated MMP-14 was coupled to streptavidin beads by incubation with 100 μL of streptavidin beads. The MMP-14 beads were then incubated with the streptavidin-depleted library for 1 hour at RT with rotation. The beads were then rinsed three times with 2% MTRIS/0.1% Tween, transferred to a fresh tube and washed an additional three times with 2% MTRIS/0.1% Tween, and transferred to a fresh tube and washed a final time with Round 1 TRIS buffer (50 mM TRIS; 50 mM CaCl2; 150 mM NaCl, pH 7.5).
MMP-14 binding antibodies were eluted from the beads by re-suspension in 1 mL 2% MTRIS containing 2.5 μM TIMP-2 and incubation for 1 hour at RT with rotation. The beads were then washed three times with 2% MTRIS/0.1% Tween, transferred to a fresh tube and washed three times with TRIS/0.1% Tween, and transferred to a fresh tube and washed a final time with TRIS. 1 mL output was used for infection of 9 mL TG1 bacteria (grown to OD600=0.5). The beads were further eluted by suspension in 1 mL 100 mM TEA for 10 minutes. The supernatant was neutralized with 500 μl TRIS/HCl pH 7.5. 1 mL of the second elution was used for infection of 9 mL TG1 bacteria (grown to OD600=0.5).
Two additional rounds of selection were carried out under the same conditions as the first round, except that the streptavidin beads were loaded with 100 nM biotinylated MMP-14 and the number of washes were doubled (6 times with 2% MTRIS/0.1% Tween, 6 times with TRIS/0.1% Tween and 2 times with TRIS), and Round 2/3 Tris buffer (50 mM TRIS; 5 mM CaCl2; 150 mM NaCl pH=7.5) was used for incubation and wash.
TIMP-2 was coupled to carboxylic beads, then complexed with a combination of biotinylated MMP-14 (500 nM each). The complexed beads were incubated with a 100 fold excess of FAB310 library that had been previously depleted by incubation with streptavidin beads and carboxylic beads. Elution/washing was carried out as for Strategy I.
Two additional rounds of selection were carried out, essentially as described for Strategy I, except that only 100 nM of each of MMP-14 were used in the bead complexes.
384-well plates were coated with biotinylated BSA (2 μg/ml in 50 mM TRIS; 5 mM CaCl2; 150 mM NaCl, pH 7.5), then washed 3 times with 50 mM TRIS; 5 mM CaCl2; 150 mM NaCl, pH 7.5; 0.1% Tween. Streptavidin was captured on the coated plates by incubation with 10 μg/mL streptavidin in 50 mM TRIS; 5 mM CaCl2; 150 mM NaCl pH 7.5; 0.5% Gelatin, followed by a wash with 50 mM TRIS; 5 mM CaCl2; 150 mM NaCl pH=7.5; 0.1% Tween. On the day the assay was to be performed, biotinylated MMP-14 (1 μg/ml) was captured in 50 mM TRIS; 5 mM CaCl2; 150 mM NaCl, pH 7.5.
95 clones were picked from each of Round 2 and Round 3 of each selection strategy, producing 12 masterplates. ELISA was run on the MiniTrak-5 deck according to SOP.

Bind to human MMP-14, bind to human MMP-14:
B1, B2, B3, B4, B5, B6, B7, B8, B9, B10, B11
